Kd data for one sequence are collected here from patent US20180148718.

For this data set, the target named is Hsp90alpha (UniProt P07900). In words: FP filter. The following applies: 5-10-5 gapmer, cEt wings 1-5 and 16-20, 2'-deoxy gap, all C 5mC, full PS; nitrocellulose double-filter binding, printed as binding constant.

Sequence “CTGCTAGCCTCTGGATTTGA [Isis 586183 (PS/cEt)]” had a Kd of 19.7 nM.

Broadly, the Kd is a measure of binding affinity in units of concentration. The low end stands for higher affinity, the high end for lower affinity.
